The subject of one series is HP1α (untagged, wt). In words: EMSA. The conditions noted are these: 20 mM HEPES pH 7.5, 70 mM KCl, 1 mM DTT. (In general: Mobility shift assays separate free from complexed probe on a gel.)
The next series has as its system HP1α-16aa-mEGFP. In words: EMSA. The conditions noted are these: 20 mM HEPES pH 7.5, 70 mM KCl, 1 mM DTT.

As to 187 bp DNA, the K half in the series on HP1α (untagged, wt) stood at 880 nM; with HP1α-16aa-mEGFP, 580 nM.

(Values after publication doi:10.1101/2023.12.04.569983.)
